This data set addresses cardiac troponin I (cTnI) (UniProt P19429 2-210). Description: SERS aptamer sandwich assay on waveguide; 1 ng/mL cTnI stock (25 uL mixed with 50 uL reporter NPs); sandwich with N2-AuNP; no cTnI-free control described; aptamer-AuNPs resuspended in PBS; cTnI incubated 30 min with reporter NPs, then 1 h on waveguide, rinsed with buffer; pH and temperature not stated. The following applies: protein: commercial.

Chain of cardiac troponin I (cTnI) (P19429 2-210): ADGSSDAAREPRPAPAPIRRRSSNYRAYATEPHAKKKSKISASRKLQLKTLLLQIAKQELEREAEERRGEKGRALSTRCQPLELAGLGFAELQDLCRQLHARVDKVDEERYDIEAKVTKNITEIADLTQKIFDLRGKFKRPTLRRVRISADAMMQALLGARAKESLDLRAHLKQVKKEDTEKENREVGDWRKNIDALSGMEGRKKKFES

As to CGTGCAGTACGCCAACCTTTCTCATGCGCTGCCCCTCTTA (ssDNA, 5'-amine-spacer 18-spacer 18) [primary (capture) aptamer], the binding result is recorded as “binds”.

The values are drawn from article PMC11643483, “Chip-Scale Aptamer Sandwich Assay Using Optical Waveguide-Assisted Surface-Enhanced Raman Spectroscopy”.
